B4: Phospholipase C-γ1 (PLC-γ1), 1–1219 (enzyme, UniProt P19174 1-1219, looked up)
chain: MAGAASPCANGCGPGAPSDAEVLHLCRSLEVGTVMTLFYSKKSQRPERKTFQVKLETRQITWSRGADKIEGAIDIREIKEIRPGKTSRDFDRYQEDPAFRPDQSHCFVILYGMEFRLKTLSLQATSEDEVNMWIKGLTWLMEDTLQAPTPLQIERWLRKQFYSVDRNREDRISAKDLKNMLSQVNYRVPNMRFLRERLTDLEQRSGDITYGQFAQLYRSLMYSAQKTMDLPFLEASTLRAGERPELCRVSLPEFQQFLLDYQGELWAVDRLQVQEFMLSFLRDPLREIEEPYFFLDEFVTFLFSKENSVWNSQLDAVCPDTMNNPLSHYWISSSHNTYLTGDQFSSESSLEAYARCLRMGCRCIELDCWDGPDGMPVIYHGHTLTTKIKFSDVLHTIKEHAFVASEYPVILSIEDHCSIAQQRNMAQYFKKVLGDTLLTKPVEISADGLPSPNQLKRKILIKHKKLAEGSAYEEVPTSMMYSENDISNSIKNGILYLEDPVNHEWYPHYFVLTSSKIYYSEETSSDQGNEDEEEPKEVSSSTELHSNEKWFHGKLGAGRDGRHIAERLLTEYCIETGAPDGSFLVRESETFVGDYTLSFWRNGKVQHCRIHSRQDAGTPKFFLTDNLVFDSLYDLITHYQQVPLRCNEFEMRLSEPVPQTNAHESKEWYHASLTRAQAEHMLMRVPRDGAFLVRKRNEPNSYAISFRAEGKIKHCRVQQEGQTVMLGNSEFDSLVDLISYYEKHPLYRKMKLRYPINEEALEKIGTAEPDYGALYEGRNPGFYVEANPMPTFKCAVKALFDYKAQREDELTFIKSAIIQNVEKQEGGWWRGDYGGKKQLWFPSNYVEEMVNPVALEPEREHLDENSPLGDLLRGVLDVPACQIAIRPEGKNNRLFVFSISMASVAHWSLDVAADSQEELQDWVKKIREVAQTADARLTEGKIMERRKKIALELSELVVYCRPVPFDEEKIGTERACYRDMSSFPETKAEKYVNKAKGKKFLQYNRLQLSRIYPKGQRLDSSNYDPLPMWICGSQLVALNFQTPDKPMQMNQALFMTGRHCGYVLQPSTMRDEAFDPFDKSSLRGLEPCAISIEVLGARHLPKNGRGIVCPFVEIEVAGAEYDSTKQKTEFVVDNGLNPVWPAKPFHFQISNPEFAFLRFVVYEEDMFSDQNFLAQATFPVKGLKTGYRAVPLKNNYSEDLELASLLIKIDIFPAKENGD

One assay addresses SLP-76 (Homo sapiens) (UniProt Q13094). Briefly: ITC. As to conditions: cited from earlier work.
For assay [1], the target named is LAT 125-178 (Homo sapiens) (UniProt O43561). Nature of the assay: ITC. As to conditions: cited from earlier work.
LAT 125-178 (Homo sapiens), sequence (O43561 125-178): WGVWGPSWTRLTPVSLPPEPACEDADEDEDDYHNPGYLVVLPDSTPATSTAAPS
Assay [2] addresses LAT 161-180 (Homo sapiens) (UniProt O43561). Nature of the assay: ITC. The settings on record: cited from earlier work.
The target of assay [3] is SLP-76 157-420 (Homo sapiens) (UniProt Q13094). Briefly: ITC. The settings on record: cited from earlier work.
SLP-76 157-420 (Homo sapiens), sequence (Q13094 157-420): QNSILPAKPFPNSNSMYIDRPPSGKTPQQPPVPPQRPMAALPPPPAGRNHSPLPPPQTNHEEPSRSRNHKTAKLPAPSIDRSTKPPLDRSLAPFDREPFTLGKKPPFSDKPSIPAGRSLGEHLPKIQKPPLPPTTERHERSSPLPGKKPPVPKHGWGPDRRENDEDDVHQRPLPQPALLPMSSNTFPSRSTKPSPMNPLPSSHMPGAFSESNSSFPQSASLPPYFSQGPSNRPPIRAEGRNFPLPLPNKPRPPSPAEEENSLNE
The target in assay [4] is SLP-76 159-533 (Homo sapiens) (UniProt Q13094). Nature of the assay: ITC. As to conditions: cited from earlier work.
SLP-76 159-533 (Homo sapiens), sequence (Q13094 159-533): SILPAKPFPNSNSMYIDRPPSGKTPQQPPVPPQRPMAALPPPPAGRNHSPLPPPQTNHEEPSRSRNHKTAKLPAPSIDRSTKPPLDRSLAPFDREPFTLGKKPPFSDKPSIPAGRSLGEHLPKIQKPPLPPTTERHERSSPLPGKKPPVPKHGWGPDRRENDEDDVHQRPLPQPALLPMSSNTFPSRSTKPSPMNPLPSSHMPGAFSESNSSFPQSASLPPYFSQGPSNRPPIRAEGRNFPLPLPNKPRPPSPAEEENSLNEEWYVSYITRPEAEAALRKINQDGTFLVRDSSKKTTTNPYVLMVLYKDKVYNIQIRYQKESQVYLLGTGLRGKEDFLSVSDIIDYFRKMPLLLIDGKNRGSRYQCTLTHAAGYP
For assay [5], the target named is LAT 122-140 (Homo sapiens) (UniProt O43561). Nature of the assay: ITC. The settings on record: cited from earlier work.
Another assay has as its target T1, PLC-γ1 (1-1219) (UniProt P19174 1-1219).
T1 construct: the text calls it full length PLC-γ1; this is the only PLC-γ1 that the methods describe; also called Phospholipase C-γ1; PLC-g1; source: Sf9, purified (HaloLink Resin, TEV cleavage, SEC)
T1 sequence (looked up): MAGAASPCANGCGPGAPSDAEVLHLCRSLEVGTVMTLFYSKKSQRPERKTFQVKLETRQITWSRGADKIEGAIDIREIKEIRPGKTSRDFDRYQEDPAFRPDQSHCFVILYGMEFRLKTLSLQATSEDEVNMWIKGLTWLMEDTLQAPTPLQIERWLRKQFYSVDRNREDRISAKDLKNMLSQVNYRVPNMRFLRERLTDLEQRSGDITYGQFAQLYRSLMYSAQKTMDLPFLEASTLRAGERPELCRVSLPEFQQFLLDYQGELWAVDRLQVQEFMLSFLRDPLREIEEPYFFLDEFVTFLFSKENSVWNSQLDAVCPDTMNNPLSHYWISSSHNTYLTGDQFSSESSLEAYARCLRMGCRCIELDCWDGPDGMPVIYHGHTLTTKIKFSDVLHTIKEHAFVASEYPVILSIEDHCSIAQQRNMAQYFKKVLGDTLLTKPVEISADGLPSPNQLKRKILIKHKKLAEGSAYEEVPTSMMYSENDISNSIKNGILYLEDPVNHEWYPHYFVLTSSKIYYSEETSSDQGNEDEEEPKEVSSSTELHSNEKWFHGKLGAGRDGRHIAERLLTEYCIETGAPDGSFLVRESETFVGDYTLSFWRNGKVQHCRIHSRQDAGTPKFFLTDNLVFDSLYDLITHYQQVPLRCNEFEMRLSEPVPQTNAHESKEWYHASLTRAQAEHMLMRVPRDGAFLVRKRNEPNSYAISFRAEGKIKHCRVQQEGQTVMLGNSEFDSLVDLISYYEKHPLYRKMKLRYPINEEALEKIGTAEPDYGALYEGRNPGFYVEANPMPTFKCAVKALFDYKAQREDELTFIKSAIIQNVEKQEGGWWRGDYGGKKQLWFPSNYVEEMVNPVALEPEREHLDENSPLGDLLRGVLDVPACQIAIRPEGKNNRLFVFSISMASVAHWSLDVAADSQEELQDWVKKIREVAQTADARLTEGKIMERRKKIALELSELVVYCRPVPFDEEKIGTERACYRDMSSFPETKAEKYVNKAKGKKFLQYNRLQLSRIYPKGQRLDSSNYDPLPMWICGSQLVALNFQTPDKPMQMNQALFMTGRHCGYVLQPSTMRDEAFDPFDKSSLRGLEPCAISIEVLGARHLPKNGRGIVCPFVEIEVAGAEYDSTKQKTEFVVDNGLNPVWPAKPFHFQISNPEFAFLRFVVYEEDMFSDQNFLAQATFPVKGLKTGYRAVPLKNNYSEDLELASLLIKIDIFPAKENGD
Nature of the assay: ITC; PEAQ-ITC, 5 °C, 20 mM Hepes pH 7.4, 100 mM NaCl, 0.1 mM DTT; 4 µM in the cell and 40 µM in the syringe, 19 injections of 2 µL; single binding site model with 1:1 stoichiometry. The settings on record: both partners purified.

Assay [6] addresses B4. Briefly: cell-based or functional assay.
Assay [7] has as its target B4. Nature of the assay: ITC; VP-ITC or PEAQ-ITC; 20 mM Hepes pH 7.4, 100 mM NaCl, 0.1 mM DTT, 5 °C; 4 µM in the cell, 40 µM in the syringe; fit to a single binding site with 1:1 stoichiometry. As to conditions: both partners purified.
Assay [8] deals with T2, phosphorylated LAT (48–233aa, pY132, pY171) (UniProt O43561-2 48-233, phosphotyrosine at 132 and 171 (in vitro phosphorylation, validated by mass spectrometry)).
T2 sequence (looked up): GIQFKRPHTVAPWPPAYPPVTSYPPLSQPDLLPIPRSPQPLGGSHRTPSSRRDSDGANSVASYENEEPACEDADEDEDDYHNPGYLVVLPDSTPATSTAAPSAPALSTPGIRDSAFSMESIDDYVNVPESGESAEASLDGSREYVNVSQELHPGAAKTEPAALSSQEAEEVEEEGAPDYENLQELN
Briefly: cell-based or functional assay.

SLP-76 (Homo sapiens), sequence (Q13094 whole entry): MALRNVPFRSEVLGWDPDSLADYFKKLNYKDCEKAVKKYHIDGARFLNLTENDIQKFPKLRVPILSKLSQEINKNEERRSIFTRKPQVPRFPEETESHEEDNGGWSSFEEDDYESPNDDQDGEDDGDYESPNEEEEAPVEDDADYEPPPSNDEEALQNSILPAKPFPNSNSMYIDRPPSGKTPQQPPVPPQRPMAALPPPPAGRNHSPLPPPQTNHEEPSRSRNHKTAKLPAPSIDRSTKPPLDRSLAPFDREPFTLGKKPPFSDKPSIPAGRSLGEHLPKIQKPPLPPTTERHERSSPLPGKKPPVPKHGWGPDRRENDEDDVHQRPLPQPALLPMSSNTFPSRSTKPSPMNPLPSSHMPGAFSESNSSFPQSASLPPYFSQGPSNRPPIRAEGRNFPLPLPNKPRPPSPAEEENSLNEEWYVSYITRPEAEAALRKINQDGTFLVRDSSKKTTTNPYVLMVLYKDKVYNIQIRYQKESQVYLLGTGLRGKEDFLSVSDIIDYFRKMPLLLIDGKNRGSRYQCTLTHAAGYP

For PLC-γ1 (from UniProt P19174), in the assay with SLP-76 (Homo sapiens), the Kd is 3340 nM.

With PLC-γ1 1-1219 (from UniProt P19174), the Kd in assay [1] was 84 nM.

As to Gads 1-322 (from UniProt O75791), the Kd is 213 nM in [1], 164 nM in assay [2], 19 nM in assay [3] and 3.6 nM in assay [4].

PLC-γ1 550-846 (from UniProt P19174): the Kd in [5] was 62 nM; in assay [3], 3340 nM.

B1: SLP-76 PRR (aa 185-200) peptide, wild type (peptide, UniProt Q13094 185-200, looked up)
peptide: QPPVPPQRPMAALPPP
notes: SLP-76 proline-rich region, residues 185-200; The peptides are called 'a set of short peptides'; also called SLP-76^WT; SLP-76 PRR_(185-200)
In the assay with PLC-γ1 (1-1219), B1 had a Kd of 2360 nM.

B2: SLP-76^WT polypeptide (aa 103–258, Y113F, Y173F) (domain or fragment, UniProt Q13094 103-258, looked up)
chain: GGWSSFEEDDFESPNDDQDGEDDGDYESPNEEEEAPVEDDADYEPPPSNDEEALQNSILPAKPFPNSNSMFIDRPPSGKTPQQPPVPPQRPMAALPPPPAGRNHSPLPPPQTNHEEPSRSRNHKTAKLPAPSIDRSTKPPLDRSLAPFDREPFTLG
notes: source: E. coli Rosetta 2(DE3)pLysS, purified (Glutathione Resin, TEV cleavage, HisTrap, SEC); not shown: His6, N-terminal, cleaved; GST, N-terminal, cleaved
As to B2, in [6], the “PLC-γ1 activity on PIP2-bearing liposomes (IP3): LAT/Gads/SLP-76^WT/PLC-γ1 tetramer against PLC-γ1 with phospho-LAT alone” value stood at 1.7 fold. In assay [7], this molecule displayed a Kd of 2320 nM and a dH of -3.8 kcal/mol.

B3: SLP-76 PRR peptide (aa 185–200), wild type (peptide, UniProt Q13094 185-200, looked up)
peptide: QPPVPPQRPMAALPPP
notes: also called SLP-76 185–200 (WT); SLP-76 PRR_(185–200) peptide
In assay [7], B3 had an equilibrium dissociation constant (Kd) of 3990 nM and a dH of -3.3 kcal/mol.

B4: the “PIP2 hydrolysis (IP3) by PLC-γ1 on liposomes containing phospho-LAT alone, compared with liposomes incubated with PLC-γ1 alone” value in assay [8] is 2.1 fold.

The values are drawn from paper PMC13522589, “Weak SLP-76/PLC-γ1 interaction fine-tunes T cell receptor signal strength to optimize T cell responsiveness” (Nature Communications, 2026).
